Assay results reported in article PMC7505474, “Toll-like receptor 4-mediated inflammation triggered by extracellular IFI16 is enhanced by lipopolysaccharide binding” (PLoS Pathogens, 2020).

Tests used:
NF-κB [1] = experiment: ELISA-based transcription factor binding assay, THP-1 nuclear extracts; format: cell-based, human; conditions: 2 h, IFI16 25 μg/ml, LPS-EB 10 ng/ml
Procedure: (§1) Nuclear extracts were prepared using NE-PER Nuclear and Cytoplasmic Extraction Reagents (Thermo Fisher Scientific), according to the manufacturer’s instructions. NF-κB binding activity to a DNA probe containing its binding consensus sequence was measured by Universal Transcription Factor Assay Colorimetric kit (Merck Millipore). […] The following biotinylated oligonucleotides were used: sense (biotin): 5’-[…]-3’; antisense: 5’-[…]-3’.

[2] = system: gram-positive bacteria (Staphylococcus aureus, Staphylococcus epidermidis, Streptococcus pyogenes); experiment: Whole cell ELISA on formalin-fixed gram-positive bacteria; format: binding; conditions: formalin-fixed bacteria as solid phase
Procedure: (§2) For whole-cell ELISA, different strains of bacteria (i.e., gram-positive: Staphylococcus aureus, Staphylococcus epidermidis and Streptococcus pyogenes; gram-negative: Escherichia coli and Klebsiella pneumonia) were grown in LB medium without antibiotics and, after washing with 1X PBS, fixed in 0.5% formalin O/N at 4°C. Subsequently, the bacteria were diluted to an OD600 of 0.5 and were used to coat microtiter plates O/N at 37°C. After blocking, increasing concentrations of IFI16 were added to the wells and incubated for 2 h at RT. Anti-IFI16 antibodies against the N-terminus of the protein and HRP-labelled anti-rabbit IgG were then added as primary and secondary antibody, respectively, and binding was detected as described above.

TLR4 = target: T1, TLR4 (Homo sapiens, UniProt O00206); experiment: SPR, IFI16 over immobilized TLR4; format: binding; conditions: IFI16 31.25–1,000 nM over immobilized TLR4; read-out: equilibrium dissociation constant (KD)
T1 construct: purchased R&D Systems 478-TR-050
Procedure: The Biacore X100 (GE Healthcare) instrument was used for real-time binding interaction experiments. Recombinant TLR4 or TLR4/MD2 complex was covalently immobilized onto the surface of sensor CM5 (cat # BR100012, GE Healthcare) chips via amine coupling. TLR4 was diluted to a concentration of 10 μg/ml in 10 mM sodium acetate at pH 4.0, while TLR4/MD2 complex was diluted to a concentration of 20 μg/ml in the same buffer. Both proteins were injected on CM5 chips at a flow rate of 10 μl/min, upon activation of the carboxyl groups on the sensor surface with 7-min injection of a mixture of 0.2 M EDC and 0.05 M NHS. The remaining esters were blocked with 7-min injection of ethanolamine. Taking into account the ligands (TLR4 or TLR4/MD2) and analytes (IFI16, LPS-EB or IFI16/LPS-EB) molecular weights (MW) of 70 or 90 kDa, and 90, 10 or 100 kDa respectively, the appropriate ligand density (RL) on the chip was calculated according to the following equation: RL = (ligand MW/analyte MW) × Rmax × (1/Sm), where Rmax is the maximum binding signal and Sm corresponds to the binding stoichiometry. The target capture level of the TLR4 or TLR4/MD2 was of 596.0 or 1,223.9 response units (RUs), respectively. […]

TLR4/MD2 receptor [3] = target: T2, TLR4/MD2 receptor (Homo sapiens, UniProt O00206+Q9Y6Y9); experiment: Co-immunoprecipitation with anti-TLR4 antibody from treated 786-O cells; format: cell-based; parameters: endogenous in cells; host or cells: 786-O; conditions: 786-O cells stimulated 1 h; extracts untreated or DNase I-treated
Procedure: Co-immunoprecipitation of TLR4 with interacting proteins was performed using the Dynabeads Protein G Immunoprecipitation Kit (ThermoFisher), according to the manufacturer’s instructions with minor modifications. Briefly, after lysis of treated cells, 20 μg of total cell extracts were kept as the input control, while 90 μg of total cell extracts were incubated for 1 h at RT with 2.5 μg of anti-TLR4 antibody previously conjugated with magnetic beads. The resulting complexes were then washed, eluted, denatured, and subjected to Western blotting as described above. For DNase-treated cell extracts, DNase I (Sigma Aldrich) was added at a 1:10 dilution and incubated for 15 min at RT. Images were acquired, and densitometry of the bands was performed using Quantity One software (version 4.6.9, Bio-Rad). Densitometry values were normalized using the corresponding loading controls.
Target sequence in this assay (O00206 24-839): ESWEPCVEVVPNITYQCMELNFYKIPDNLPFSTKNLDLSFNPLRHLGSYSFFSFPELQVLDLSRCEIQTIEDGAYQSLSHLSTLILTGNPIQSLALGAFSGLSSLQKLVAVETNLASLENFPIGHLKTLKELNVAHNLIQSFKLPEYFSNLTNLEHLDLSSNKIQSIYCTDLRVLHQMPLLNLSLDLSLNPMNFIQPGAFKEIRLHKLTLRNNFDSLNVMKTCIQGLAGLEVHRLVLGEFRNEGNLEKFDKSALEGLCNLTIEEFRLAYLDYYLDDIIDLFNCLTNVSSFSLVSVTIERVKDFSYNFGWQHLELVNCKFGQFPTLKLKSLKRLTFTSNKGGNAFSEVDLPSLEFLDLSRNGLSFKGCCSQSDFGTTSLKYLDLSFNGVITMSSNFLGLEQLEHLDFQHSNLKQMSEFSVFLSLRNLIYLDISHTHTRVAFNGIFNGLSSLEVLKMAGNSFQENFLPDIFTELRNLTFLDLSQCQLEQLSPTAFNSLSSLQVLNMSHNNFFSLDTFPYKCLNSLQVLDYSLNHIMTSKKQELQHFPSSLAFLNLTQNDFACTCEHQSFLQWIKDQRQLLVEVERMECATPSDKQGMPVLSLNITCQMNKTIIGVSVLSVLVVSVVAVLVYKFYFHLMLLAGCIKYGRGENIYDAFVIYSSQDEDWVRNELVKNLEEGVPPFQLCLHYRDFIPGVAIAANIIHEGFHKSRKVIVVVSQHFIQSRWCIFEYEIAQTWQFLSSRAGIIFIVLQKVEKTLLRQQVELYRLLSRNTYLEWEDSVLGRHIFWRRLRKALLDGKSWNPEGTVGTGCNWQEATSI
Target sequence in this assay (Q9Y6Y9 17-160 limits assumed): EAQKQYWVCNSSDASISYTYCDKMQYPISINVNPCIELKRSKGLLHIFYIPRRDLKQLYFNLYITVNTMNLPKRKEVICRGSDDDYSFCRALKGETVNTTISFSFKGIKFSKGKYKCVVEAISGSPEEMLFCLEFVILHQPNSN

786-O cells [4] = experiment: Cytokine release by ELISA in 786-O culture supernatants; format: cell-based, human; conditions: 24 h post-treatment, 25 μg/ml, alone or complexed with LPS
Procedure: (§3) For treatments, cells were stimulated in complete medium with endotoxin-free IFI16 (25 μg/ml), endotoxin-free IFI16ΔHINB (25 μg/ml), MPLA, DPLA, LPS-F583, LPS-EB, LPS-RS, alone or pre-complexed by O/N incubation at 4°C, unless specified otherwise. Additionally, cells were stimulated with supernatants of untreated or UVB-treated U2OS or U2OS-IFI16^-/- cells alone or preincubated O/N at 4°C with LPS-EB, or LPS-RS. LPS variants or lipid A moieties were used at a concentration of 10 ng/ml. All treatments were carried out at 37°C and 5% CO2.
Cytokines secreted in culture supernatants after treatments were analyzed using human IL-6 DuoSet ELISA and human IL-8 DuoSet ELISA (all from R&D Systems), human TNF-α Uncoated ELISA and human IL-1β Uncoated ELISA (Thermo Fisher Scientific) according to the manufacturer’s instructions. Absorbance was measured using a Spark multimode microplate reader (Tecan).

[5] = In vitro pull-down assay with biotin-LPS-EB and streptavidin beads; format: binding, E. coli O111:B4; conditions: 3 μg recombinant protein; 10 μg biotin-LPS-EB
Procedure: Biotin-labeled LPS-EB (10 μg) was incubated with 30 μl of streptavidin sepharose high performance beads (GE Healthcare) for 3 h at 4°C. After a washing step, 3 μg of recombinant IFI16, PYRIN, HINA, HINB, IFI16ΔHINB, or GST were added and incubated O/N at 4°C. After five washes with 1X PBS with 0.25% Triton X-100 (Sigma-Aldrich), samples were boiled in sample buffer containing SDS and β-mercaptoethanol and centrifuged. Supernatants were separated on a 7.5% or 12% SDS-polyacrylamide gel (Bio-Rad). Gels were stained with Coomassie brilliant blue (Serva Electrophoresis GmbH) for protein visualization.

TLR4/MD2 receptor [6] = target: T2, TLR4/MD2 receptor; experiment: SPR, analytes over immobilized TLR4/MD2; format: binding; parameters: purchased R&D Systems 3146-TM-050/CF
Procedure: The Biacore X100 (GE Healthcare) instrument was used for real-time binding interaction experiments. Recombinant TLR4 or TLR4/MD2 complex was covalently immobilized onto the surface of sensor CM5 (cat # BR100012, GE Healthcare) chips via amine coupling. TLR4 was diluted to a concentration of 10 μg/ml in 10 mM sodium acetate at pH 4.0, while TLR4/MD2 complex was diluted to a concentration of 20 μg/ml in the same buffer. Both proteins were injected on CM5 chips at a flow rate of 10 μl/min, upon activation of the carboxyl groups on the sensor surface with 7-min injection of a mixture of 0.2 M EDC and 0.05 M NHS. The remaining esters were blocked with 7-min injection of ethanolamine. Taking into account the ligands (TLR4 or TLR4/MD2) and analytes (IFI16, LPS-EB or IFI16/LPS-EB) molecular weights (MW) of 70 or 90 kDa, and 90, 10 or 100 kDa respectively, the appropriate ligand density (RL) on the chip was calculated according to the following equation: RL = (ligand MW/analyte MW) × Rmax × (1/Sm), where Rmax is the maximum binding signal and Sm corresponds to the binding stoichiometry. The target capture level of the TLR4 or TLR4/MD2 was of 596.0 or 1,223.9 response units (RUs), respectively. […] Increasing concentrations of endotoxin-free IFI16, LPS-EB or IFI16/LPS-EB complex were flowed over the CM5 sensor chip coated with TLR4 or TLR4/MD2 at a flow rate of 30 μl/min at 25°C with an association time of 120 s for IFI16 alone and the IFI16/LPS-EB complex, and 180 s for LPS-EB, and a dissociation phase of 180 s for IFI16 and IFI16/LPS-EB complex or 600 s for LPS-EB. A single regeneration step with 50 mM NaOH was performed following each analytic cycle. All the analytes tested were diluted in the HBS-EP+ buffer (GE Healthcare). […]
Target sequence in this assay (O00206 24-631 limits assumed): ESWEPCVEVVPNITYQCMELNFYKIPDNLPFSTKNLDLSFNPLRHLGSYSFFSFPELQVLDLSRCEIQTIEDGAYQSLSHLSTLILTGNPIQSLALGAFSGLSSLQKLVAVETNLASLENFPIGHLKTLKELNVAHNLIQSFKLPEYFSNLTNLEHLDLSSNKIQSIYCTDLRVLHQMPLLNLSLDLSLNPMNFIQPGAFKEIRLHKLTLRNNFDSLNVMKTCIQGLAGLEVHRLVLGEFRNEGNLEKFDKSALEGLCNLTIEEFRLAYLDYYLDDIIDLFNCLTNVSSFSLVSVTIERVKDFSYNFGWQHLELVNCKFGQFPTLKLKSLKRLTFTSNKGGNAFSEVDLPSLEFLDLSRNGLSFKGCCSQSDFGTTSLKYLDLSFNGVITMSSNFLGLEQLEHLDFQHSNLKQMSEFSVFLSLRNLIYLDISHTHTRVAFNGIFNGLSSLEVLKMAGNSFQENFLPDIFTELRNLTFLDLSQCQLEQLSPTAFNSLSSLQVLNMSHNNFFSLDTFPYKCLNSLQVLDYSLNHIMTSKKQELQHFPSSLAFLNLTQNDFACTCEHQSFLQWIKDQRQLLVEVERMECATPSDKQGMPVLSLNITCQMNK
Target sequence in this assay (Q9Y6Y9 17-160 limits assumed): as the sequence (Q9Y6Y9 17-160 limits assumed) above

NF-κB [7] = experiment: ELISA-based transcription factor binding assay, 786-O nuclear extracts; format: cell-based, human; conditions: 2 h, IFI16 25 μg/ml, LPS-EB 10 ng/ml
Procedure: as §1

786-O cells [8] = experiment: qRT-PCR of proinflammatory cytokine mRNA in 786-O cells; format: cell-based, human; conditions: 24 h, IFI16 25 μg/ml, over mock-treated cells
Procedure: as §3
(§4) Quantitative real-time PCR (qRT-PCR) was performed on a CFX96 Real-Time PCR Detection System (Bio-Rad) as previously described. Total RNA was extracted using TRI Reagent (Sigma-Aldrich), and 1 μg was retrotranscribed using an iScript cDNA Synthesis Kit (Bio-Rad). Reverse-transcribed cDNAs were amplified in duplicate using SsoAdvanced Universal SYBR Green Supermix (Bio-Rad). The glyceraldehyde 3-phosphate dehydrogenase (GAPDH) gene was used as housekeeping gene to normalize for variations in cDNA levels. The relative normalized expression after stimulation as compared to control was calculated as fold change = 2 ^-Δ(ΔCT) where ΔCT = CTtarget—CTGADPH and Δ(ΔCT) = ΔCTstimulated - ΔCTcontrol. The primer sequences are available upon request.

THP-1 cells = experiment: qRT-PCR of proinflammatory cytokine mRNA in THP-1 cells; format: cell-based, human; conditions: 24 h, IFI16 25 μg/ml, over mock-treated cells
Procedure: as §3, §4

[9] = system: gram-negative bacteria (E. coli, Klebsiella pneumoniae); experiment: Whole cell ELISA on formalin-fixed gram-negative bacteria; format: binding; conditions: formalin-fixed bacteria as solid phase
Procedure: as §2

T1 sequence (O00206 24-631 limits assumed): as the sequence (O00206 24-631 limits assumed) above

B1: IFI16: human recombinant IFI16 protein, endotoxin-free (protein)
chain: MGKKYKNIVLLKGLEVINDYHFRMVKSLLSNDLKLNLKMREEYDKIQIADLMEEKFRGDAGLGKLIKIFEDIPTLEDLAETLKKEKLKVKGPALSRKRKKEVDATSPAPSTSSTVKTEGAEATPGAQKRKKSTKEKAGPKGSKVSEEQTQPPSPAGAGMSTAMGRSPSPKTSLSAPPNSSSTENPKTVAKCQVTPRRNVLQKRPVIVKVLSTTKPFEYETPEMEKKIMFHATVATQTQFFHVKVLNTSLKEKFNGKKIIIISDYLEYDSLLEVNEESTVSEAGPNQTFEVPNKIINRAKETLKIDILHKQASGNIVYGVFMLHKKTVNQKTTIYEIQDDRGKMDVVGTGQCHNIPCEEGDKLQLFCFRLRKKNQMSKLISEMHSFIQIKKKTNPRNNDPKSMKLPQEQRQLPYPSEASTTFPESHLRTPQMPPTTPSSSFFTKKSEDTISKMNDFMRMQILKEGSHFPGPFMTSIGPAESHPHTPQMPPSTPSSSFLTTLKPRLKTEPEEVSIEDSAQSDLKEVMVLNATESFVYEPKEQKKMFHATVATENEVFRVKVFNIDLKEKFTPKKIIAIANYVCRNGFLEVYPFTLVADVNADRNMEIPKGLIRSASVTPKINQLCSQTKGSFVNGVFEVHKKNVRGEFTYYEIQDNTGKMEVVVHGRLTTINCEEGDKLKLTCFELAPKSGNTGELRSVIHSHIKVIKTRKNKKDILNPDSSMETSPDFFF
- NF-κB binding activity fold induction vs untreated cells (NF-κB [1]): 2.4 fold
- IFI16 binding to gram-positive bacteria [2]: no IFI16 binding could be detected
- Kd (TLR4): 130 nM
- Co-immunoprecipitation with TLR4/MD2 (TLR4/MD2 receptor [3]): co-immunoprecipitated with TLR4/MD2 receptor
- IL-1β release (786-O cells [4]): neither IFI16 nor IFI16ΔHINB per se or after forming a complex with LPS induced IL-1β release
- Pull-down by biotin-LPS-EB (Coomassie band) [5]: readily detect a highly reproducible ~100-kDa band
- dissociation rate constant (Kd) (TLR4/MD2 receptor [6]): 0.00614 s⁻¹
- Ka (TLR4/MD2 receptor [6]; association rate constant): 9070 M⁻¹ s⁻¹
- dissociation rate constant (koff) (TLR4/MD2 receptor [6]; dissociation rate constant): 0.00614 s⁻¹
- Rmax (TLR4/MD2 receptor [6]; maximum response): 26.09 RU
- Kd (TLR4/MD2 receptor [6]; text / Fig 8C legend, read-out: equilibrium dissociation constant (KD)): 680 nM
- NF-κB binding activity fold induction vs untreated cells (NF-κB [7]): 2.2 fold
- IL-1β gene expression fold induction (786-O cells [8]): 13 fold
- IL-1β gene expression fold induction (THP-1 cells): 72 fold
- IFI16 binding to surface of gram-negative bacteria [9]: strongly associated with the surface of both gram-negative bacteria species
